Assay results: patent US20190276501

Columns and labels:
[1] = molecular target: T1, HB-EncV57^TEVK138^TEV-His
T1 chain: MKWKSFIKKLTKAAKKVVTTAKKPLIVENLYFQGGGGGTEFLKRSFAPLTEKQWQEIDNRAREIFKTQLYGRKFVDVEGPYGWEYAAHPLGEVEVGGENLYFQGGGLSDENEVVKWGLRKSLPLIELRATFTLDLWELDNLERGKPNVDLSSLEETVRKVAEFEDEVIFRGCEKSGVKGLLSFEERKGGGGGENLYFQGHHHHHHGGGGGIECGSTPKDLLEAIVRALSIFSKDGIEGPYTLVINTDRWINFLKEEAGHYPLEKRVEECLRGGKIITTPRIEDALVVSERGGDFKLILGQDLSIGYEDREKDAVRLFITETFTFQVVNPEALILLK

[2] = molecular target: HB-EncK138^TEV-His, EncD60^TEVK138^TEV-His, and HB-EncV57^TEVK138^TEV-His
[3] = molecular target: T2, Ap-EncD60^TEVK138^TEV-His
T2 chain: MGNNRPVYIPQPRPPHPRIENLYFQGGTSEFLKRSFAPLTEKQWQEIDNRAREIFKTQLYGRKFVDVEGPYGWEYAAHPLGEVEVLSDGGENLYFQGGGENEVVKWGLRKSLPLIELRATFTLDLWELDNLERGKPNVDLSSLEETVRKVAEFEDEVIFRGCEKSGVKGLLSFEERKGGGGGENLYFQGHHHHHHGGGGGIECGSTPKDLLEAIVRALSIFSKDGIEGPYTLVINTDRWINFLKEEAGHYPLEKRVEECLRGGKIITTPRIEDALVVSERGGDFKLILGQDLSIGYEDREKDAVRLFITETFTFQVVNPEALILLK

HB-EncK138^TEV-His = molecular target: T3, HB-EncK138^TEV-His
T3 chain: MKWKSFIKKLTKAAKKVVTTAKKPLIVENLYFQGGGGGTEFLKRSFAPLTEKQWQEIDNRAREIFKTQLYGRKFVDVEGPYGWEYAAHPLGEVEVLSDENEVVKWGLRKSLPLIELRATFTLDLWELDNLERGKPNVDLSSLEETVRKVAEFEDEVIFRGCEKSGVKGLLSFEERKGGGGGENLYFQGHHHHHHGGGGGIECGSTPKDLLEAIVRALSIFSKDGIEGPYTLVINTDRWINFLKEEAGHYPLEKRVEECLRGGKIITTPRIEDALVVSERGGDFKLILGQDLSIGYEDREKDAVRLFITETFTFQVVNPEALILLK

Ap-EncK138^TEV-His = molecular target: T4, Ap-EncK138^TEV-His
T4 chain: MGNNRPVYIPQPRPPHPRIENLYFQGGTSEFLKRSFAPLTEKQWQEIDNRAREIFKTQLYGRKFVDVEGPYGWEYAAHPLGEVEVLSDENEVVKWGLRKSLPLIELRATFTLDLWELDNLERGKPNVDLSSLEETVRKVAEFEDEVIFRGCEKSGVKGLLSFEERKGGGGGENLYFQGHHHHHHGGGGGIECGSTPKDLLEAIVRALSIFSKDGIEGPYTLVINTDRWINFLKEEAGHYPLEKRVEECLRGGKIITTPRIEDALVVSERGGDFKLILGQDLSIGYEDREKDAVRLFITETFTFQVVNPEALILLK

[4] = molecular target: T5, HB-EncD60^TEVK138^TEV-His
T5 chain: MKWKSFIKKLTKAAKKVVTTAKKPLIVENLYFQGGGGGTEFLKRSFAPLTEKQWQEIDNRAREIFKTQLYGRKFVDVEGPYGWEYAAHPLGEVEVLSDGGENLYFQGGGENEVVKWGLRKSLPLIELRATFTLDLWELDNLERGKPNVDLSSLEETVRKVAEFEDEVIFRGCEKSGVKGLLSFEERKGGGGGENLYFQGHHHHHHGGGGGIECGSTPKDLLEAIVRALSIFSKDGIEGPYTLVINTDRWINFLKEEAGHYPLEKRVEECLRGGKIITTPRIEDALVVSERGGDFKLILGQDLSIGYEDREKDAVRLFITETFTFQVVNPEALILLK

[5] = molecular target: T6, Ap-EncK71^TEVK138^TEV-His
T6 chain: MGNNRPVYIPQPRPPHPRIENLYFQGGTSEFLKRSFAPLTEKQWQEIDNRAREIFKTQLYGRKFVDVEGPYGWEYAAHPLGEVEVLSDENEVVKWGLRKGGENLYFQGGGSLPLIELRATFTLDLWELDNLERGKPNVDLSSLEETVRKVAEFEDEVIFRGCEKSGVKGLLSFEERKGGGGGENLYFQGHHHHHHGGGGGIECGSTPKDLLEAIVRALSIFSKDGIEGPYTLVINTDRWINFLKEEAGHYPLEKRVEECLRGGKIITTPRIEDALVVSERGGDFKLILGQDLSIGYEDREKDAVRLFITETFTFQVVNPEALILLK

[6] = molecular target: T7, HB-EncD60^TEVK138^TEV-His with a GT linker between the TEV site and the N-terminus of Enc
T7 chain: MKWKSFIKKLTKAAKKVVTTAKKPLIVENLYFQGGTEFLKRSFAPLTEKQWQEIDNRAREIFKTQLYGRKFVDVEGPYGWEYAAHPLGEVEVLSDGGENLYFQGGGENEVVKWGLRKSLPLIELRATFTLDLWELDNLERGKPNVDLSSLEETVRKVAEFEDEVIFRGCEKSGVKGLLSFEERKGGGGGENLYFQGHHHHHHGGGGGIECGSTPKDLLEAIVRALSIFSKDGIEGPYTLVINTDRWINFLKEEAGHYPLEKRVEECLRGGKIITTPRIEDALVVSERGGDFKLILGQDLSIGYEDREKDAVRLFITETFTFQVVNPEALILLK

[7] = molecular target: T8, HB-EncK138^TEV-His with a GT linker between the TEV site and the N-terminus of Enc
T8 chain: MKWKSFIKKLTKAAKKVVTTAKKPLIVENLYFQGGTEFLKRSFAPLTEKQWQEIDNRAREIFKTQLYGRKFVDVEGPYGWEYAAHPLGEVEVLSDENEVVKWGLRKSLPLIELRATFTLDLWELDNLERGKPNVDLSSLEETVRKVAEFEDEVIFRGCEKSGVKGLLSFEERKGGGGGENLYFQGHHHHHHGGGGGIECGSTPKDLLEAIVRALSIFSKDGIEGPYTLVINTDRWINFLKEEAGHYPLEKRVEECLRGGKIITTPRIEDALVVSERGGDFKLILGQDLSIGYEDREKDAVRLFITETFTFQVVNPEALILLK

[8] = molecular target: T9, HB-EncV57^TEVK138^TEV-His with a GT linker between the TEV site and the N-terminus of Enc
T9 chain: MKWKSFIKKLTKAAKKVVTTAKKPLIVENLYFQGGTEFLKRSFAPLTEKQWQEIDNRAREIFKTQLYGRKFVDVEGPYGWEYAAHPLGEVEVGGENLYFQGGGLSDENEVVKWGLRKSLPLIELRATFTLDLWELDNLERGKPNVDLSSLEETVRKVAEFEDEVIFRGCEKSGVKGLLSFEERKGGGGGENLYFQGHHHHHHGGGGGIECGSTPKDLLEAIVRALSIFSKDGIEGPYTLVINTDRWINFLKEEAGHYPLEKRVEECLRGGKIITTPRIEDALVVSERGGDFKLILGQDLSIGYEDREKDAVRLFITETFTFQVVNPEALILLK

B1: TEV protease (protein)
chain: GESLFKGPRDYNPISSTICHLTNESDGHTTSLYGIGFGPFIITNKHLFRRNNGTLLVQSLHGVFKVKNTTTLQQHLIDGRDMIIIRMPKDFPPFPQKLKFREPQREERICLVTTNFQTKSMSSMVSDTSCTFPSSDGIFWKHWIQTKDGQCGSPLVSTRDGFIVGIHSASNFTNTNNYFTSVPKNFMELLTNQEAQQWVSGWRLNADSVLWGGHKVFMSKPEEPFQPVKEATQLMNELVYSQ
- release of HBCM2 peptide after TEV protease digestion (densitometry) [1]: released fewer peptide per fusion protein
- release of HBCM2 peptide after TEV protease digestion (overnight, 4 C; Tris-Tricine gel) [1]: All constructs were found to at least partially release HBCM2 peptide
- relative HB/HB-Enc ratio (densitometry after TEV protease digestion) [2]: a relative HB/HB-Enc ratio of 0.26 to 0.56
- TEV protease digestion, SDS-PAGE and anti-TEV site Western blot (up to 20 h at 30 C) [3]: not well digested by TEV protease
- release of HBCM2 peptide after TEV protease digestion (densitometry) (HB-EncK138^TEV-His): released fewer peptide per fusion protein
- release of HBCM2 peptide after TEV protease digestion (overnight, 4 C; Tris-Tricine gel) (HB-EncK138^TEV-His): All constructs were found to at least partially release HBCM2 peptide
- TEV protease digestion, SDS-PAGE and anti-TEV site Western blot (up to 20 h at 30 C) (Ap-EncK138^TEV-His): not well digested by TEV protease
- release of HBCM2 peptide after TEV protease digestion (densitometry) [4]: released fewer peptide per fusion protein
- release of HBCM2 peptide after TEV protease digestion (overnight, 4 C; Tris-Tricine gel) [4]: All constructs were found to at least partially release HBCM2 peptide
- TEV protease digestion, SDS-PAGE and anti-TEV site Western blot (up to 20 h at 30 C) [5]: construct 125 (Ap-Encap(K71, K138)) is digested by TEV protease to near completion
- release of HB peptide after TEV protease digestion (SDS-PAGE) [6]: did not result in detectable release of HB peptide by SDS-PAGE
- release of HB peptide after TEV protease digestion (SDS-PAGE) [7]: did not result in detectable release of HB peptide by SDS-PAGE
- release of HB peptide after TEV protease digestion (SDS-PAGE) [8]: did not result in detectable release of HB peptide by SDS-PAGE
